Results on 4 molecules are retold here after PMC7826282 (Nucleic Acids Research, 2020).

Broadly, the Kd is the equilibrium constant for the complex coming apart. A higher Kd goes with weaker binding.

Changes are numbered by the printed parent chain. Names and notes keep the numbering of the source.

Assay [1] concerns the target T1, 3xFLAG-FL-NOPCHAP1 (human, UniProt Q8N5I9 1-185).
T1 sequence (looked up): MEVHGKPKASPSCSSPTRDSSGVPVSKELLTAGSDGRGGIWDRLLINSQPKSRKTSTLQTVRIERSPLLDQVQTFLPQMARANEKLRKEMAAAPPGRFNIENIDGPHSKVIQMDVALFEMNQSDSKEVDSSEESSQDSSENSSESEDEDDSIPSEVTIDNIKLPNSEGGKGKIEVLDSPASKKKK
The assay is described as follows: co-IP.

Assay [2] addresses 3xFLAG-FL-RUVBL2 (WT) (mouse, UniProt Q9WTM5 1-463). The assay is described as follows: co-IP.
The target of assay [3] is 3xFLAG-FL-RUVBL1 (WT) (mouse, UniProt P60122 1-456). The assay is described as follows: co-IP.
Chain of 3xFLAG-FL-RUVBL1 (WT) (P60122 whole entry): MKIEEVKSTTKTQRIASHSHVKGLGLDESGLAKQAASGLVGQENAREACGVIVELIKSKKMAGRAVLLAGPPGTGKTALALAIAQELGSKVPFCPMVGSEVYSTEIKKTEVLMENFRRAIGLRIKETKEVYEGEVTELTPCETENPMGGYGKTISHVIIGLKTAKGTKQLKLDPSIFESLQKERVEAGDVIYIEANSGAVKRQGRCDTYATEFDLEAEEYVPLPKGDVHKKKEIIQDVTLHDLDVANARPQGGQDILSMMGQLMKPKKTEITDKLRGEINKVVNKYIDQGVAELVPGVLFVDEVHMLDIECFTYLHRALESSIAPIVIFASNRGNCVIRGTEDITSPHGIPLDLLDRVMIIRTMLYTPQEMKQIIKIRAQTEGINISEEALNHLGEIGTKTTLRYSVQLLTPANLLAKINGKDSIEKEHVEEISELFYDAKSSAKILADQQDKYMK
Assay [4] has as its target RUVBL1/2 WT complex ( (human or mouse cDNA cloned), UniProt Q9Y265 1-456; Q9Y230 1-463). The assay is described as follows: SPR. Background: In SPR one partner is held on a chip, and binding of the other changes the refractive index at the surface.

Chain of RUVBL1/2 WT complex (Q9Y265 whole entry, one chain of several): as the sequence (P60122 whole entry) above, with V291I counted along it

B1: RL-RUVBL2-E300Q (natural protein, mouse, UniProt Q9WTM5 1-463, looked up)
chain: MATVAATTKVPEIRDVTRIERIGAHSHIRGLGLDDALEPRQASQGMVGQLAARRAAGVVLEMIREGKIAGRAVLIAGQPGTGKTAIAMGMAQALGPDTPFTAIAGSEIFSLEMSKTEALTQAFRRSIGVRIKEETEIIEGEVVEIQIDRPATGTGSKVGKLTLKTTEMETIYDLGTKMIESLTKDKVQAGDVITIDKATGKISKLGRSFTRARDYDAMGSQTKFVQCPDGELQKRKEVVHTVSLHEIDVINSRTQGFLALFSGDTGEIKSEVREQINAKVAEWREEGKAEIIPGVLFIDQVHMLDIESFSFLNRALESDMAPVLIMATNRGITRIRGTSYQSPHGIPIDLLDRLLIVSTSPYSEKDTKQILRIRCEEEDVEMSEDAYTVLTRIGLETSLRYAIQLITAASLVCRKRKGTEVQVDDIKRVYSLFLDESRSTQYMKEYQDAFLFNELKGETMDTS
In assay [1], B1 had a co-IP efficiency of 0.35%.

B2: RL-RUVBL2-K83M (natural protein, mouse, UniProt Q9WTM5 1-463, looked up)
chain: B1 chain with K83M, Q300E
B2 returned a co-IP efficiency in assay [1] of 7.5%.

B3: RL-NOP58 (natural protein, human, UniProt Q9Y2X3 1-529, looked up)
chain: MLVLFETSVGYAIFKVLNEKKLQEVDSLWKEFETPEKANKIVKLKHFEKFQDTAEALAAFTALMEGKINKQLKKVLKKIVKEAHEPLAVADAKLGGVIKEKLNLSCIHSPVVNELMRGIRSQMDGLIPGVEPREMAAMCLGLAHSLSRYRLKFSADKVDTMIVQAISLLDDLDKELNNYIMRCREWYGWHFPELGKIISDNLTYCKCLQKVGDRKNYASAKLSELLPEEVEAEVKAAAEISMGTEVSEEDICNILHLCTQVIEISEYRTQLYEYLQNRMMAIAPNVTVMVGELVGARLIAHAGSLLNLAKHAASTVQILGAEKALFRALKSRRDTPKYGLIYHASLVGQTSPKHKGKISRMLAAKTVLAIRYDAFGEDSSSAMGVENRAKLEARLRTLEDRGIRKISGTGKALAKTEKYEHKSEVKTYDPSGDSTLPTCSKKRKIEQVDKEDEITEKKAKKAKIKVKVEEEEEEKVAEEEETSVKKKKKRGKKKHIKEEPLSEEEPCTSTAIASPEKKKKKKKKRENED
On to B3, for which the co-IP efficiency was 0.18% in assay [1], below 0.1% in assay [2] and below 0.1% in assay [3]. Also, in assay [1], the “fold over the control IP without antibody” value was 64 fold.

B4: Avi-NOPCHAP1-6xHis, biotinylated (natural protein, human, UniProt Q8N5I9 1-185, looked up)
chain: T1 sequence (looked up)
modifications: biotin (cellular biotinylation by BirA)
On to B4, for which, in assay [4], binding was characterised by a dissociation constant (Kd) of 1.98 nM.
